What all share (conditions): Homo sapiens; time 1.0 hrs
Substrate in data set [1]: Cc1cc(O)ccc1/C=C/C(=O)c1ccc(O)cc1O
Description: (§1) Binding affinity to DAPK1 (unknown origin) assessed as catalytic rate incubated for 1 hr in presence of ATP by malachite green assay (Rvb = 3.0 +/- 0.15 /min)
Substrate in data set [2]: O=C(/C=C/c1ccc(O)c(O)c1)c1ccc(O)cc1O
Description: as §1
Substrate in data set [3]: COc1cc(/C=C/C(=O)c2ccc(O)cc2O)ccc1O
Description: as §1
Substrate in data set [4]: CCCc1cc(/C=C/C(=O)c2ccc(O)cc2O)ccc1O
Description: as §1
Substrate in data set [5]: C=CCc1cc(/C=C/C(=O)c2ccc(O)cc2O)ccc1O
Description: as §1
Substrate in data set [6]: O=C(/C=C/c1ccc(O)cc1)c1ccc(O)cc1O
Description: as §1
Substrate in data set [7]: Cc1cc(O)ccc1/C=C/C(=O)c1ccc(O)cc1O
The source holds these as a separate data set.

Substrate in data set [8]: O=C(/C=C/c1ccc(O)c(O)c1)c1ccc(O)cc1O
This is another data set of the same source.

Substrate in data set [9]: COc1cc(/C=C/C(=O)c2ccc(O)cc2O)ccc1O
The source holds these as a separate data set.

Substrate in data set [10]: CCCc1cc(/C=C/C(=O)c2ccc(O)cc2O)ccc1O
The source holds these as a separate data set.

Substrate in data set [11]: C=CCc1cc(/C=C/C(=O)c2ccc(O)cc2O)ccc1O
The source holds these as a separate data set.

Substrate in data set [12]: O=C(/C=C/c1ccc(O)cc1)c1ccc(O)cc1O
The source holds these as a separate data set.

Substrate in data set [13]: Cc1cc(O)ccc1/C=C/C(=O)c1ccc(O)cc1O
The source holds these as a separate data set.

Substrate in data set [14]: O=C(/C=C/c1ccc(O)c(O)c1)c1ccc(O)cc1O
The source holds these as a separate data set.

Substrate in data set [15]: COc1cc(/C=C/C(=O)c2ccc(O)cc2O)ccc1O
This is another data set of the same source.

Substrate in data set [16]: CCCc1cc(/C=C/C(=O)c2ccc(O)cc2O)ccc1O
This is another data set of the same source.

Substrate in data set [17]: C=CCc1cc(/C=C/C(=O)c2ccc(O)cc2O)ccc1O
The source holds these as a separate data set.

Substrate in data set [18]: O=C(/C=C/c1ccc(O)cc1)c1ccc(O)cc1O
The source holds these as a separate data set.

B1: Death-associated protein kinase 1 (Homo sapiens), P53355 (protein)
chain: MTVFRQENVDDYYDTGEELGSGQFAVVKKCREKSTGLQYAAKFIKKRRTKSSRRGVSREDIEREVSILKEIQHPNVITLHEVYENKTDVILILELVAGGELFDFLAEKESLTEEEATEFLKQILNGVYYLHSLQIAHFDLKPENIMLLDRNVPKPRIKIIDFGLAHKIDFGNEFKNIFGTPEFVAPEIVNYEPLGLEADMWSIGVITYILLSGASPFLGDTKQETLANVSAVNYEFEDEYFSNTSALAKDFIRRLLVKDPKKRMTIQDSLQHPWIKPKDTQQALSRKASAVNMEKFKKFAARKKWKQSVRLISLCQRLSRSFLSRSNMSVARSDDTLDEEDSFVMKAIIHAINDDNVPGLQHLLGSLSNYDVNQPNKHGTPPLLIAAGCGNIQILQLLIKRGSRIDVQDKGGSNAVYWAARHGHVDTLKFLSENKCPLDVKDKSGEMALHVAARYGHADVAQLLCSFGSNPNIQDKEEETPLHCAAWHGYYSVAKALCEAGCNVNIKNREGETPLLTASARGYHDIVECLAEHGADLNACDKDGHIALHLAVRRCQMEVIKTLLSQGCFVDYQDRHGNTPLHVACKDGNMPIVVALCEANCNLDISNKYGRTPLHLAANNGILDVVRYLCLMGASVEALTTDGKTAEDLARSEQHEHVAGLLARLRKDTHRGLFIQQLRPTQNLQPRIKLKLFGHSGSGKTTLVESLKCGLLRSFFRRRRPRLSSTNSSRFPPSPLASKPTVSVSINNLYPGCENVSVRSRSMMFEPGLTKGMLEVFVAPTHHPHCSADDQSTKAIDIQNAYLNGVGDFSVWEFSGNPVYFCCYDYFAANDPTSIHVVVFSLEEPYEIQLNQVIFWLSFLKSLVPVEEPIAFGGKLKNPLQVVLVATHADIMNVPRPAGGEFGYDKDTSLLKEIRNRFGNDLHISNKLFVLDAGASGSKDMKVLRNHLQEIRSQIVSVCPPMTHLCEKIISTLPSWRKLNGPNQLMSLQQFVYDVQDQLNPLASEEDLRRIAQQLHSTGEINIMQSETVQDVLLLDPRWLCTNVLGKLLSVETPRALHHYRGRYTVEDIQRLVPDSDVEELLQILDAMDICARDLSSGTMVDVPALIKTDNLHRSWADEEDEVMVYGGVRIVPVEHLTPFPCGIFHKVQVNLCRWIHQQSTEGDADIRLWVNGCKLANRGAELLVLLVNHGQGIEVQVRGLETEKIKCCLLLDSVCSTIENVMATTLPGLLTVKHYLSPQQLREHHEPVMIYQPRDFFRAQTLKETSLTNTMGGYKESFSSIMCFGCHDVYSQASLGMDIHASDLNLLTRRKLSRLLDPPDPLGKDWCLLAMNLGLPDLVAKYNTSNGAPKDFLPSPLHALLREWTTYPESTVGTLMSKLRELGRRDAADFLLKASSVFKINLDGNGQEAYASSCNSGTSYNSISSVVSR
On to B1, for which the catalytic constant (kcat) – broadly, the maximal rate divided by the concentration of active sites – in [1] was determined as 0.0383 s⁻¹; in data set [2] it was 0.0367 s⁻¹; in data set [3] it was 0.0383 s⁻¹; in [4], 0.035 s⁻¹; in [5], 0.025 s⁻¹; in data set [6], 0.0483 s⁻¹. Besides, the kcat/Km (as a rule, the second-order rate constant that governs catalysis at low substrate concentration) in data set [7] amounted to 650 M⁻¹ s⁻¹; in [8], 417 M⁻¹ s⁻¹; in data set [9], 417 M⁻¹ s⁻¹; in data set [10], 583 M⁻¹ s⁻¹; in [11] it was 1130 M⁻¹ s⁻¹; in [12] it was 600 M⁻¹ s⁻¹. Further, the Km (commonly the concentration of substrate that gives half-maximal velocity) turned out to be 48 µM in data set [13]; 60 µM in data set [14]; 59 µM in data set [15]; 28 µM in data set [16]; 21 µM in data set [17]; 43 µM in data set [18].

For the origin of these results see ChEMBL document CHEMBL6127040, “Discovery and optimization of isoliquiritigenin as a death-associated protein kinase 1 inhibitor” (Eur J Med Chem, 2024).
